Here are results for two molecules from patent publication US20200024360A1 (Janssen / Centocor, published 2020).

The EC50 (read off the curve) is the concentration needed to bring the measured effect to its halfway point.

Test [1] deals with T1, Cynomolgous monkey PSMA, full length (Macaca fascicularis, UniProt Q04609 1-750 (human entry)).
T1 construct: On transfected HEK293F cells; also called cyno PSMA; EHH56646.1
T1 chain: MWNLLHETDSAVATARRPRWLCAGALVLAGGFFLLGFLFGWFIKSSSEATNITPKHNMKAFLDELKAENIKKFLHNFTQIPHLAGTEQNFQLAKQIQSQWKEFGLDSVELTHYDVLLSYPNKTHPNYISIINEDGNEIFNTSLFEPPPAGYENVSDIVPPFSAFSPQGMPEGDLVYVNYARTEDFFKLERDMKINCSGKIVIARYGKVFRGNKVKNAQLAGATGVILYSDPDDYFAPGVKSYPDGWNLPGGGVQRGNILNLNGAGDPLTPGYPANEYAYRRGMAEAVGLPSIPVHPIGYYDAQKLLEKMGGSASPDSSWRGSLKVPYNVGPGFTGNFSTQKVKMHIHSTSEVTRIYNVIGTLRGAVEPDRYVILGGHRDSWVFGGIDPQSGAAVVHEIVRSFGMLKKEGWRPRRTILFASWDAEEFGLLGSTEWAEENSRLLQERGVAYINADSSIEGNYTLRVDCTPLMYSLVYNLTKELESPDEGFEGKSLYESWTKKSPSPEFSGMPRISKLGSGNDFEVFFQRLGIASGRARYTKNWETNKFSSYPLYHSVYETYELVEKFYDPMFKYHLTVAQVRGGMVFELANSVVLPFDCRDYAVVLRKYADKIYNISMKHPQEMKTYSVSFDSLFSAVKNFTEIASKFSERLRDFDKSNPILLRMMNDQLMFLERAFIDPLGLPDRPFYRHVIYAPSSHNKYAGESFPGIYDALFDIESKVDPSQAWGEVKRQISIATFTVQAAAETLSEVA
Kind of test: flow cytometry, mammalian Fab supernatant titrated on cyno PSMA (PSMG5) HEK cells, anti-human kappa-RPE. The protocol:
Plates were read on a BD FACS Array flow cytometer. FACS data was analyzed in FlowJo software by live gating the healthy population of cells using forward scatter and side scatter, and then analyzing the cells within this gate for PE staining. Mean fluorescence intensity (MFI) was calculated and exported into Microsoft Excel. […] Fabs were sequenced and moved forward for cloning into mammalian expression vector for rescreening. True positives were selected from the binding of mammalian cell expressed Fab supernatants to PSMA-expressing cell lines.
Binding profiles among hits were compared across cell lines expressing different species of PSMA.
For orientation: In flow cytometry, cells or beads pass a laser one at a time.

Test [2] concerns the target T2, cynomolgus CD3ε on primary cynomolgus CD4+ T cells (cynomolgus monkey, UniProt Q95LI5 22-198).
T2 construct: whole, on cells
Briefly: FACS, primary cynomolgus CD4+ T cells.

T2 sequence (Q95LI5 22-198): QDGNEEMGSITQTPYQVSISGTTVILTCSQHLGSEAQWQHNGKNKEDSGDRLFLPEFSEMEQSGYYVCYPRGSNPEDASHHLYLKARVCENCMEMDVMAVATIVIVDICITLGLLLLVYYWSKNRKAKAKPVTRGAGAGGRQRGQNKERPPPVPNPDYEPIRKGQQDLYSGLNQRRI

B1: PSMB49 (Fab, V domains shown)
VH: QVQLVQSGAEVKKPGSSVKVSCKASGGTFSSYAISWVRQAPGQGLEWMGGIIPIFGTANYAQKFQGRVTITADESTSTAYMELSSLRSEDTAVYYCARASRVWHASYGYLDYWGQGTLVTVSS
VL: EIVLTQSPATLSLSPGERATLSCRASQSVSKWLAWYQQKPGQAPRLLIYDASNRATGIPARFSGSGSGTDFTLTISSLEPEDFAVYYCQQRFTAPWTFGQGTKVEIK
notes: Fab; also called PSMM50; Fab of mAb PSMB121
As to B1, in test [1], the concentration giving a half-maximal response (EC50 (read off the curve)) is approximately 0.2 µg/mL.

B2: G11 (antibody, human IgG1, kappa, V domains shown)
VH: EVQLLESGGGLVQPGGSLRLSCAASGFTFSSYGMSWVRQAPGKGLEWVSGINGGGGSKYYADSVKGRFTISRDNSKNTLYLQMNSLRAEDTAVYYCAKTSAQRFDYWGQGTLVTVSS
VL: DIQMTQSPSSLSASVGDRVTITCRASQSISSYLNWYQQKPGAPKLLIYAASSLQSGVPSRFSGSGSGTDFTLTISSLQPEDFATYYCQQSYSLPLTFGQGTKVEIKR
notes: In-house phage-derived anti-CD3 control; also called GI
As to B2, in test [2], the binding result is listed as “no binding”.
